Assay: label from the status in PepcDB records
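Also: failed if final PepcDB status was selected cloned or expressed and not failed if soluble or beyond.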

| Sequence | protein production |
| --- | --- |
| MIAITLLVVIDQVALSQTFPILTIIYALATILPAWGVLVRRLHDIGRSGWWMLISCVPLVGGIILFVFTVMDSQQGDNQFGASPKAAL | failed |
| MSLSNTPIELKGSSFTLSVVHLHEAEPEVIRQALEDKIAQAPAFLKHAPVVINVSGLESPVNWPELHKIVTSTGLRIIGVSGCKDASLKVEIDRMGLPLLTEGKEKAVRPAPEGHHHHHH | not failed |
| MRTLNTSAMDGTGLVVERDFSVRILTACFLSLLILSTLLGNTLVCAAVIRFRHLRSKVTNFFVISLAVSDLLVAVLVMPWKAVAEIAGFWPFGSFCNIWVAFDIMCSTASILNLCVISVDRYWAISSPFRYERKMTPKAAFILISVAWTLSVLISFIPVQLSWHKAKPTSPSDGNATSLAETIDNCDSSLSRTYAISSSVISFYIPVAIMIVTYTRIYRIAQKQIRRIAALERAAVHAKNCQTTTGNGKPVECSQPESSFKMSFKRETKVLKTLSVIMGVFVCCWLPFFILNCILPFCGSGETQPFCIDSNTFDVFVWFGWANSSLNPIIYAFNADFRKAFSTLLGCYRLCPATNNAIETVSINNNGAAMFSSHHEPRGSISKECNLVYLIPHAVGSSEDLKKEEAAGIARPLEKLSPALSVILDYDTDVSLEKIQPITQNGQHPT | failed |
| MILSAEQSFTLRHPHGQAAALAFVREPAAALAGVRFLRGLDSDGEQVWGELLVTVPLLGEVDLPFRSEIVRTPQGAELRPLTLTGERAWVAVSGQATAAEGGEMAFAFQFQAHLATPEAEGWGGAAFEKMVQAAAGRTLERVAKALPEGLAAGLPPA | not failed |
| MKSLWSDADAAECVERLGLLGLPPELGLRTYSARLLGSNPKLVLHGGGNTSVKLNINDLFGNPVQVMCIKGSGQDLATITASGHPAVRLAPLQQLKVLDHLSDEDMVNILRTNLLDCRAPTPSVEALLHAFVDRPVIDHTHAVAAMVIADQPDGDRLCRYIYGERVLWIPYVMSGFALSLAVERAFRAYPDAEGMLLGKHGLCTFGESAKASYERMITFVTLAENFIESRRAIYSPPVITPPAKPNNLADMAHIAPYLRAAFARSSAISEKKHWIFDLRTDPKSLAFSSGLGTSDIAQRGVATPDHVIRMKGRPVVLDAPDLNNLGDWAAQTQTKIAAFVERYQHYFHRNNARFERGKIALDALPRAIVIPYLGVVGAGRTAEDAAINADIIESWLDVVTDATVCGDYEPIGEADEFDMEYWSLEQAKIDKASVKPLQGQIVVVTGAGGGIGAAIAKEFSLLGAELAVLDIDSESAKNVAAQLGPHALALQCDVTETASVQAAFETIATRFGGVDIVVSNAGVALSGAIAELPEATLRTSFEVNFFAHQRVAQQAVSIMKKQGIGGVLLFNISKQAINPGINFGAYGTSKAALLSLVRQYALEQGQDSIRVNAVNADRIRSGLLDDEMISLRARARGLSEEKYMAGNLLGQEVTAQDVAKAFVVSAMLDKSTGNVITVDGGNVAAMLR | failed |
| MKSLEEKTIAKEQIFSGKVIDLYVEDVELPNGKASKREIVKHPGAVAVLAVTDEGKIIMVKQFRKPLERTIVEIPAGKLEKGEEPEYTALRELEEETGYTAKKLTKITAFYTSPGFADEIVHVFLAEELSVLEEKRELDEDEFVEVMEVTLEDALKLVESREVYDAKTAYAIQYLQLKEALQAQK | failed |
| MINKTLLQKRFNGAAVSYDRYANVQKKMAHSLLSILKERYSETASIRILELGCGTGYVTEQLSKLFPKSHITAVDFAESMIAIAQTRQNVKNVTFHCEDIERLRLEESYDVIISNATFQWLNNLQQVLRNLFQHLSIDGILLFSTFGHETFQELHASFQRAKEERNIKNETSIGQRFYSKDQLLHICKIETGDVHVSETCYIESFTEVKEFLHSIRKVGATNSNEGSYCQSPSLFRAMLRIYERDFTGNEGIMATYHALFIHITKEGKR | failed |
| GFVCDDFPKPQITVQPETQSAIKGSDVSFTCSAASSSDSPMTFAWKKDNEALQDAEMENYAHLRAQGGELMEYTTILRLRNVEFTSEGKYQCVISNHFGSSYSVKAKLTIN | not failed |
| MTRAKAPMEGVKLNSLLKVEDFATQSQFLGVNPIWNNNSTQLVEPPSIVNDEEEETEPLLPVEFTLVERNLEDGLVEEIIFSSGGEIDVYDLQGLCDKVGWPRRPLVKLAAALKNSYMVATLHSVMKSSSDSDSSEGGDGEKQQEKKLIGMARATSDHAFNATIWDVLVDPEYQGQGLGKALVEKLVRALLQRDIGNISLFADSQVVDFYQNLGFEADPEGIKGMFWYPK | failed |
| MGSDVHVWKTWFITSSDRGFTWSTPAPLVNDDILPRGPVKNKLLLASNGAWIAPGSIESPERWRAFVDRSSDEGKHWSISFVPLEPDNAISGTNVALWDGIKKGRLWECCLENLLRWDGVIQPTLWESSPGHIHMLLRSTRGAIFRSDSIDYGATWSVARATSLPNNNSGIDLVSMQDGTLILALNPVNGNWGKRYPLSLIASQDNGESWLPLLDLESDHGEYSYPAIISEGGIVHITYTWNRKLEHHHHHH | not failed |
| MSDRRAPLVLEVDGVRHPLTPPGLTIGRGSDADIRINDPGISRLHARINVWPQGNDIGLSIEDLDSTNGVTVNGVKVTSTELGDGSRIEIGSTRMLVHSPTRILEHHHHHH | failed |
| MPIPLEKQNKERRQKILTCSLDLFIEKGYYNTSIRDIIALSEVGTGTFYNYFVDKEDILKNLLEDFAKQIISSISEYYLVEKDLYERFIETKRLTMEVFAQNETLSEIYSRVAGSSAPIDQCLKQFEDRLLEFYSRNIEYGIKKGVFKNVPVSPIAHSILAIEKFSLYKWVVLKAITKEEMIEMVLSFHKTLAVGLLVVND | not failed |
| MVCDKCEKKLSKVIVPDKWKDGARNVTEGGGRKINENKLLSKKNRWSPYSTCTTKCMICKQQVHQDGKYCHTCAYSKGVCAMCGKQVLDTKMYKQSNV | failed |
| MNLAQSNREIVELLVPIIVGYMSLFISSIFVYRIGKIILRRDSISLISAIIFLLNPSTIFCLLYSPKNYGFASVGYYFVPLLYLMSYYYYLKKDWKKFTAFTVALTLTSPLSYLIAITFIVYLLIRNRIDEKSLSWSLLRENKISLVLILVSLIIGVLVIPQTLQHFSSLLIASIYPQYTSLNYIYDNVYFKLTYWFILFGVFSFLPIFSPLELIPALPYLLVGLFSSYIPYYSYGYYPYYFLALPMLIMGFIRTINLIKDDKRTMLISYVFIFLFNVALLYVILE | failed |
| DHPEEGDTAPDFTRPLVNDEFWEDESLASVCADSDRVVLVFHAMDGAFPATYIWNEIRDRAWHEQATVVGISISTPYEHKQLLKEREIEGDYRLFSDPANGVAQQYSIDMALDGMAGIEEPRPSVFVLDSDRTIEYAWVAQEWPDFPDYDDVEAQL | failed |
| MNKKNVELLVAIGEVYLKAGKLPEAQEYAALAKKVNGKSALASVLEGDIAFEQKNAGLASQKYEEAIYFDPSCTEAYLRYADIYKSANAALAIEKLEQLKAQEPSNTAVDKKLAEIYYLKNDFSKAAEAYSRFAMGPTATEEDLVKYAFALFLNHDFEKSLEVANMGLKKNARHAAFNRLAMYNYTDLKRFDEAIKAADAFFTESDKADYSYLDYMYYGHLLEALKKYDEAVGQYEKAIQLDPTKTDLYKNISSAYEQKNDYKKAISAYQKYYTSLDKEHQTPDLEHHHHHH | failed |
| MLVPLPVREIMRTPVKTISPSAPVIEAAQRLRDEDIGSLVVEDDGSCVGIITESDIVAVTAAEGDTRALSVGDVMAETLVTVAPDADMQAAVDRLQTNNIKKLPVVEDGSLVGIVTTTDLSDYIPHLSRAVRMSNDQSQQKRFTRPDTLYENEDWTFESYGTADGIDVGDHVEFSKTISKADVEAFAEASGDTNRLHLDATFADGTRFGRRIVHGTLVSGIISAALARLPGLTIYLSQELSYQGPVDIDEEVTARCEVVERIQDNRFRLATAVDDSEGNCVIEGDAVVISDPIPDTA | failed |
| MYDFKKINNLRGIERETLRVTDCGNLATSNHPDGLGHKLTNNSITVDFSENLLELITKPHDSIDKAIGELYQLSAFTLDNMHSDEIILNTSMPLSANDNDIQEADFGSSNSGRMKRVYRKGLSARYGKIMQIISGIHYNFSFDKDLISNIATNKQVSISDIYFDVLNNYFEFMWLLPYLFGASPICAKTSVKNKPDYLSVLDDKFYVGEYATSLRMSDLGYTSPAQKDLAISYDNVKAYVKDLIQATDDTFADYKRIGLYNSQGQRIQLNDGILQIENEYYSAIRPKQIAKRGERPACALYNRGVEYVEVRVLDVDPFEPVGISKDTALFVEVMLMTCLDKDAKKYHKDIIKQAKQNLTAVAIQGRNPQLKLKKLDDDSEILLKDYALELFDEIEAVAKKMPKEYLDAVEIQKRKVLDISQTPSAKIIELARQHGYKKFILDISRRVSQQFRSYELPAAIVAKLKDQAGQSVAAEKELVANDKISLDEYINRYYKSSKGCC | not failed |

Source: a protein production outcome set (Wang et al. 2014)
